Measured values: patent US20240294569A1, “MODULATORS OF SORTILIN ACTIVITY” (Insusense ApS, priority 2021, published 2024)

Biological target: 6his-Sortilin (human) (UniProt Q99523)
Assay: SPA, displacement of [3H]-neurotensin from 6his-Sortilin

Chain of 6his-Sortilin (human) (Q99523 78-755 V650M limits assumed): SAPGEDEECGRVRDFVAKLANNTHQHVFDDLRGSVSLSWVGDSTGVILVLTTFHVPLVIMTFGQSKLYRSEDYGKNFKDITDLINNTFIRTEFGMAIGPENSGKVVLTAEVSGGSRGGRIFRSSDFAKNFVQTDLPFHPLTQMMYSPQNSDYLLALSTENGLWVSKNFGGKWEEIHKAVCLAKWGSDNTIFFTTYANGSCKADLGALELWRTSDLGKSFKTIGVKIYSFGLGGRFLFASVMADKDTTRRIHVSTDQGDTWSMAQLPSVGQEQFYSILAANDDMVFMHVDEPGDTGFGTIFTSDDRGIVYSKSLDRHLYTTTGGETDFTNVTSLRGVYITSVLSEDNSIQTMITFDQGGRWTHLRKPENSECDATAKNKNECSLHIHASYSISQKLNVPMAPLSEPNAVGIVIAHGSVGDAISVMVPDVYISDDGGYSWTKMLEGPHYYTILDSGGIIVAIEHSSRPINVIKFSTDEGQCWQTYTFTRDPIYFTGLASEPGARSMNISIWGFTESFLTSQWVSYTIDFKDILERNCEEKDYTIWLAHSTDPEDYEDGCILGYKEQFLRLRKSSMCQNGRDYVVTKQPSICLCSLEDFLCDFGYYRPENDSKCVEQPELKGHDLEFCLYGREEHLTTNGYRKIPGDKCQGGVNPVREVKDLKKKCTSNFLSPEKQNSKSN

IC50: 0.06 µM
Substance: (S)-2-((S)-2-((S)-5-Amino-5-oxo-2-((S)-pyrrolidine-2-carboxamido)pentanamido)-3-(thiazol-4-yl)propanamido)-5,5-dimethylhexanoic acid (peptide)
